Like-named read-outs stand apart in the source and are kept apart here. Where a SMILES comes first, the peptide text is derived from it. Bridges are numbered along the chain shown (N, C = ends). [ ]: non-standard residue; d: D form. The star is where a group is joined. DOTA = O=C(O)CN1CCN(CC(=O)O)CCN(CC(=O)*)CCN(CC(=O)O)CC1; 2Nal = N[C@@H](Cc1ccc2ccccc2c1)C(=O)O; Cit = NC(=O)NCCC[C@H](N)C(=O)O
Legend:
CXCR4 = target: T1, CXCR4 (Homo sapiens, UniProt P61073); assay: In vitro autoradiography saturation binding on U87-CXCR4 + tumour slices; conditions: sections of subcutaneous U87-CXCR4 + tumours; 0.1–1000 nM; NSB with 100 µM AMD11070; N = 3
T1 construct: expressed in transfected cells; host or cells: U87-MG (U87-CXCR4+), kept under blasticidin selection

[1] = Ex vivo biodistribution in U87-CXCR4 + tumour-bearing mice; design: species or system BALB/c nude mice; conditions: mouse; for tissue to tissue ratio at 24 h / tissue uptake dose at 1 h / tissue uptake dose at 4 h / tissue uptake dose at 24 h / tissue uptake dose at 168 h / SUV at 1 h / SUV at 4 h / SUV at 24 h / SUV at 168 h: female, BALB/c nude, iv, 1.5 MBq, total radioactivity; for tissue uptake dose at 1 h / tissue uptake dose at 4 h / tissue uptake dose at 24 h / tissue uptake dose at 168 h: %IA
Experimental: For the generation of the subcutaneous GBM xenograft model, BALB/c nude mice (between 8 and 12 weeks old) were anesthetised with 2.5% isoflurane in O2 at a flow rate of 0.2 L/min and subcutaneously injected on the right shoulder with 3 × 10^6 U87-CXCR4 + cells resuspended in a 1:1 mixture of PBS and Cultrex BME (R&D Systems, Bio-Techne, Minnesota, US). Tumours were left to grow for ten days before the start of the experiment. Tumour volumes were calculated as length × width × height. Three days before the experiment, the mean tumour volumes of all mice were 255 ± 119 mm^3.
The pharmacokinetic profile of [^177Lu]Lu-POL3026 was evaluated in female BALB/c nude mice with subcutaneous xenografts of U87-CXCR4 + tumours.
All animals were anesthetised with 2.5% isoflurane in O2 at a flow rate of 1 L/min and intravenously (IV) injected with 1.5 MBq of [^177Lu]Lu-POL3026 via a tail vein (radiolabelled with a Am of 53.1 ± 0.55 MBq/nmol). The mice were sacrificed by an overdose of pentobarbital (200 µL of 60 mg/mL) at 1-, 4-, 24- and 168 h post-injection (p.i.) (n = 3–4 per time point), followed by cardiac puncture. Organs of interest were collected in tarred tubes and weighed. The activity in the different organs was measured in the automated gamma counter described above. For the calculation of the total activity in the blood, bone, and muscle, the masses were assumed to be 7, 12 and 40% of the total body mass, respectively. Data is shown as standardised uptake value (SUV), calculated using the following equation:
SUV = [Activity in organ (cpm) / Organ weight (g)] / [(Injected activity (cpm) / Total body weight (g)].

T1 sequence (P61073 whole entry): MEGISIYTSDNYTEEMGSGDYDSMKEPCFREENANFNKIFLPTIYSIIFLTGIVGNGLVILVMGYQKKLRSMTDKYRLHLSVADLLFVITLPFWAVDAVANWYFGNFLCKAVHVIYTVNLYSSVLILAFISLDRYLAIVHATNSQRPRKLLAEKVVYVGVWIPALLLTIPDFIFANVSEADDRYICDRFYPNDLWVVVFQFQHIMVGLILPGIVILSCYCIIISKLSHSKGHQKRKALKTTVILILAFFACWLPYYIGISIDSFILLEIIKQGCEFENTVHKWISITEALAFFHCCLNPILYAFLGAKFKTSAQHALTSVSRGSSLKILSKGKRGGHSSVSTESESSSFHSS

With `N=C(N)NCCC[C@@H]1NC(=O)[C@@H]2CSSC[C@H](NC(=O)[C@H](Cc3ccc4ccccc4c3)NC(=O)[C@H](CCCNC(=N)N)NC(=O)[C@H](CCCNC(=N)N)NC(=O)[C@H]3CCCN3C(=O)CNC1=O)C(=O)N[C@@H](Cc1ccc(O)cc1)C(=O)N[C@@H](CCC(N)=O)C(=O)N[C@@H](CCCCNC(=O)CN1CCN(CC(=O)O)CCN(CC(=O)O)CCN(CC(=O)O)CC1)C(=O)N1CCC[C@@H]1C(=O)N1CCC[C@H]1C(=O)N[C@@H](Cc1ccc(O)cc1)C(=O)N[C@@H](CCCNC(=N)N)C(=O)N[C@@H](CCCNC(N)=O)C(=O)N2` [[^177Lu]Lu-DOTA-POL3026, metal not drawn] (cyclo(RR[2Nal]CYQK(DOTA)[dP]PYR[Cit]CRG[dP]); disulfide 4-13) the Kd (CXCR4) was 52 nM, the tissue to tissue ratio at 24 h ([1]; 24 h p.i., read-out: tumour-to-kidney ratio) was 0.7 and the tissue uptake dose at 1 h ([1]; Blood) was 15.2 %ID. The tissue uptake dose at 4 h ([1]; Blood) was 3.73 %ID, the tissue uptake dose at 24 h ([1]; Blood) was 0.14 %ID and the tissue uptake dose at 168 h ([1]; Blood) was 0.04 %ID. For the same compound, the tissue uptake dose at 1 h ([1]; Blood on tissue paper) was 3.79 %ID, the tissue uptake dose at 4 h ([1]; Blood on tissue paper) was 1.56 %ID and the tissue uptake dose at 24 h ([1]; Blood on tissue paper) was 0.51 %ID. The tissue uptake dose at 168 h ([1]; Blood on tissue paper) was 0.2 %ID, the tissue uptake dose at 1 h ([1]; Bone) was 8.81 %ID and the tissue uptake dose at 4 h ([1]; Bone) was 14.4 %ID. It also gave a tissue uptake dose at 24 h ([1]; Bone) of 7.05 %ID, a tissue uptake dose at 168 h ([1]; Bone) of 2.14 %ID and a tissue uptake dose at 1 h ([1]; Brain) of 0.09 %ID. The tissue uptake dose at 4 h ([1]; Brain) was 0.03 %ID, the tissue uptake dose at 24 h ([1]; Brain) was 0.01 %ID and the tissue uptake dose at 1 h ([1]; Carcass) was 28.5 %ID. The tissue uptake dose at 4 h ([1]; Carcass) was 18.3 %ID, the tissue uptake dose at 24 h ([1]; Carcass) was 12.8 %ID and the tissue uptake dose at 168 h ([1]; Carcass) was 3.02 %ID. It also gave a tissue uptake dose at 1 h ([1]; Heart) of 0.71 %ID, a tissue uptake dose at 4 h ([1]; Heart) of 0.22 %ID and a tissue uptake dose at 24 h ([1]; Heart) of 0.09 %ID. For the same compound, the tissue uptake dose at 168 h ([1]; Heart) was 0.01 %ID, the tissue uptake dose at 1 h ([1]; Intestines) was 5.63 %ID and the tissue uptake dose at 4 h ([1]; Intestines) was 3.76 %ID. For the same compound, the tissue uptake dose at 24 h ([1]; Intestines) was 2.14 %ID, the tissue uptake dose at 168 h ([1]; Intestines) was 0.59 %ID and the tissue uptake dose at 1 h ([1]; Kidneys) was 4.03 %ID. For the same compound, the tissue uptake dose at 4 h ([1]; Kidneys) was 4.99 %ID, the tissue uptake dose at 24 h ([1]; Kidneys) was 3.65 %ID and the tissue uptake dose at 168 h ([1]; Kidneys) was 0.61 %ID. The tissue uptake dose at 1 h ([1]; Liver) was 31.6 %ID, the tissue uptake dose at 4 h ([1]; Liver) was 39.8 %ID and the tissue uptake dose at 24 h ([1]; Liver) was 39.2 %ID. For the same compound, the tissue uptake dose at 168 h ([1]; Liver) was 14.2 %ID, the tissue uptake dose at 1 h ([1]; Lungs) was 2.72 %ID and the tissue uptake dose at 4 h ([1]; Lungs) was 1.87 %ID. The tissue uptake dose at 24 h ([1]; Lungs) was 0.59 %ID, the tissue uptake dose at 168 h ([1]; Lungs) was 0.06 %ID and the tissue uptake dose at 1 h ([1]; Muscle) was 9.87 %ID. The tissue uptake dose at 4 h ([1]; Muscle) was 4.89 %ID, the tissue uptake dose at 24 h ([1]; Muscle) was 3.78 %ID and the tissue uptake dose at 168 h ([1]; Muscle) was 0.57 %ID. It also gave a tissue uptake dose at 1 h ([1]; Pancreas) of 0.3 %ID, a tissue uptake dose at 4 h ([1]; Pancreas) of 0.16 %ID and a tissue uptake dose at 24 h ([1]; Pancreas) of 0.1 %ID. The tissue uptake dose at 168 h ([1]; Pancreas) was 0.02 %ID, the tissue uptake dose at 1 h ([1]; Spleen) was 4.01 %ID and the tissue uptake dose at 4 h ([1]; Spleen) was 2.02 %ID. For the same compound, the tissue uptake dose at 24 h ([1]; Spleen) was 1.61 %ID, the tissue uptake dose at 168 h ([1]; Spleen) was 0.72 %ID and the tissue uptake dose at 1 h ([1]; Stomach) was 0.35 %ID. For the same compound, the tissue uptake dose at 4 h ([1]; Stomach) was 0.31 %ID, the tissue uptake dose at 24 h ([1]; Stomach) was 0.17 %ID and the tissue uptake dose at 168 h ([1]; Stomach) was 0.03 %ID. For the same compound, the tissue uptake dose at 1 h ([1]; Tail) was 2.05 %ID, the tissue uptake dose at 4 h ([1]; Tail) was 1.75 %ID and the tissue uptake dose at 24 h ([1]; Tail) was 1.7 %ID. It also gave a tissue uptake dose at 168 h ([1]; Tail) of 0.53 %ID, a tissue uptake dose at 1 h ([1]; Tumour) of 1.54 %ID and a tissue uptake dose at 4 h ([1]; Tumour) of 1.01 %ID. For the same compound, the tissue uptake dose at 24 h ([1]; Tumour) was 1.46 %ID, the tissue uptake dose at 168 h ([1]; Tumour) was 0.29 %ID and the SUV at 1 h ([1]; Blood) was 2.17 SUV. The SUV at 4 h ([1]; Blood) was 0.53 SUV, the SUV at 24 h ([1]; Blood) was 0.02 SUV and the SUV at 1 h ([1]; Bone) was 0.73 SUV. For the same compound, the SUV at 4 h ([1]; Bone) was 1.2 SUV, the SUV at 24 h ([1]; Bone) was 0.59 SUV and the SUV at 168 h ([1]; Bone) was 0.18 SUV. For the same compound, the SUV at 1 h ([1]; Brain) was 0.05 SUV, the SUV at 4 h ([1]; Brain) was 0.02 SUV and the SUV at 24 h ([1]; Brain) was 0.01 SUV. The SUV at 1 h ([1]; Heart) was 1.33 SUV, the SUV at 4 h ([1]; Heart) was 0.46 SUV and the SUV at 24 h ([1]; Heart) was 0.17 SUV. It also gave an SUV at 168 h ([1]; Heart) of 0.02 SUV, an SUV at 1 h ([1]; Kidneys) of 2.57 SUV and an SUV at 4 h ([1]; Kidneys) of 3.34 SUV. It also gave an SUV at 24 h ([1]; Kidneys) of 2.41 SUV, an SUV at 168 h ([1]; Kidneys) of 0.38 SUV and an SUV at 1 h ([1]; Liver) of 5.27 SUV. For the same compound, the SUV at 4 h ([1]; Liver) was 7.32 SUV, the SUV at 24 h ([1]; Liver) was 6.46 SUV and the SUV at 168 h ([1]; Liver) was 2.3 SUV. It also gave an SUV at 1 h ([1]; Lungs) of 4.74 SUV, an SUV at 4 h ([1]; Lungs) of 3.24 SUV and an SUV at 24 h ([1]; Lungs) of 1.02 SUV. The SUV at 168 h ([1]; Lungs) was 0.08 SUV, the SUV at 1 h ([1]; Muscle) was 0.25 SUV and the SUV at 4 h ([1]; Muscle) was 0.12 SUV. It also gave an SUV at 24 h ([1]; Muscle) of 0.09 SUV, an SUV at 168 h ([1]; Muscle) of 0.01 SUV and an SUV at 1 h ([1]; Pancreas) of 0.3 SUV. The SUV at 4 h ([1]; Pancreas) was 0.19 SUV, the SUV at 24 h ([1]; Pancreas) was 0.13 SUV and the SUV at 168 h ([1]; Pancreas) was 0.02 SUV. The SUV at 1 h ([1]; Spleen) was 8.67 SUV, the SUV at 4 h ([1]; Spleen) was 6.77 SUV and the SUV at 24 h ([1]; Spleen) was 4.83 SUV. It also gave an SUV at 168 h ([1]; Spleen) of 1.84 SUV, an SUV at 1 h ([1]; Tumour) of 1.39 SUV and an SUV at 4 h ([1]; Tumour) of 1.74 SUV. The SUV at 24 h ([1]; Tumour) was 1.79 SUV, the SUV at 168 h ([1]; Tumour) was 0.32 SUV and the tissue to tissue ratio at 24 h ([1]; tumour-to-blood ratio) was 89. For the same compound, the tissue to tissue ratio at 24 h ([1]; tumour-to-liver ratio) was 0.3, the tissue to tissue ratio at 24 h ([1]; tumour-to-muscle ratio) was 19 and the “%IA, Brain” value [1] was 0.00 %IA. The “SUV, Blood” value [1] was 0.00, the “SUV, Brain” value [1] was 0.00 and the “SUV, Tumour” value [1] was 1.9.

Reference: article PMC11250742, “Preclinical evaluation of CXCR4 peptides for targeted radionuclide therapy in glioblastoma” (EJNMMI Radiopharmacy and Chemistry, 2024)
